Patent publication US20140179896A1 (published 2014)

Columns and labels:
[1] = molecular target: T1, human vascular endothelial growth factor receptor-2 Fc chimera (KDR-Fc) (human, UniProt P35968 20-764); assay: BIAcore, target-Fc immobilized
T1 construct: range 1-764; purchased from R&D Systems; also called hKDR; human VEGF-R2-Fc; not shown: human IgG1 Fc
Description: (§1) The binding kinetics of fibronectin-based scaffold proteins binding proteins to the target was measured using BIAcore 2000 biosensor (Pharmacia Biosensor). Human and mouse VEGF-R2-Fc fusions were immobilized onto a CM5 sensor chip and soluble binding proteins were injected at concentrations ranging from 0 to 100 nM in buffer 0 (10 mM HEPES, 150 mM NaCl, 0.005% Tween 20, pH 7.4). Sensorgrams were obtained at each concentration and were evaluated using a program, BIA Evaluation 2.0 (BIAcore), to determine the rate constants kₐ (kₒₙ) and kd (koff.) The affinity constant, KD was calculated from the ratio of rate constants […].
T1 sequence (P35968 20-764 limits assumed, change not shown, form in doubt): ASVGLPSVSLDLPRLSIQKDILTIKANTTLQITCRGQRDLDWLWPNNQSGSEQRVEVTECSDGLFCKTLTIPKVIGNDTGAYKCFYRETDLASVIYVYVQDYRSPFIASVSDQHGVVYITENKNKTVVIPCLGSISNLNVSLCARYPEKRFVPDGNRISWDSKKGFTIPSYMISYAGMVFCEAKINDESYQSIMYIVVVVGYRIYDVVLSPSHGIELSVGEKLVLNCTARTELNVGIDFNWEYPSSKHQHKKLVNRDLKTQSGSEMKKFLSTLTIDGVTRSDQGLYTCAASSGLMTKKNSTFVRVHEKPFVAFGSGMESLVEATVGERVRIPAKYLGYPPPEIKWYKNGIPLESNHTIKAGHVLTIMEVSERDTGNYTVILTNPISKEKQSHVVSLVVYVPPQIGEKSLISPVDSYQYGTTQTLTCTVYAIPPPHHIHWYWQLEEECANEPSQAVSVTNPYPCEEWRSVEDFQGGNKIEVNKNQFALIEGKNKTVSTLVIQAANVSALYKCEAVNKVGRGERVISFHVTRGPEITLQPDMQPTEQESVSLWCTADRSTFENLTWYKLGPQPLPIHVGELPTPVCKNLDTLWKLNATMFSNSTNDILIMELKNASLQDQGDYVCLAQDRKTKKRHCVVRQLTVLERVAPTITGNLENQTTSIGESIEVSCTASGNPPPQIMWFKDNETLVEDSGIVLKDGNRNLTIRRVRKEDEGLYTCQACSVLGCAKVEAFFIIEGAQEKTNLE

[2] = molecular target: T2, mouse vascular endothelial growth factor receptor-2 Fc chimera (Flk-1-Fc) (mouse, UniProt P35918 20-762); assay: BIAcore, target-Fc immobilized
T2 construct: purchased from R&D Systems; also called mouse VEGF-R2-Fc; not shown: Fc part of the purchased chimera
Description: as §1
T2 sequence (P35918 20-762, change not shown): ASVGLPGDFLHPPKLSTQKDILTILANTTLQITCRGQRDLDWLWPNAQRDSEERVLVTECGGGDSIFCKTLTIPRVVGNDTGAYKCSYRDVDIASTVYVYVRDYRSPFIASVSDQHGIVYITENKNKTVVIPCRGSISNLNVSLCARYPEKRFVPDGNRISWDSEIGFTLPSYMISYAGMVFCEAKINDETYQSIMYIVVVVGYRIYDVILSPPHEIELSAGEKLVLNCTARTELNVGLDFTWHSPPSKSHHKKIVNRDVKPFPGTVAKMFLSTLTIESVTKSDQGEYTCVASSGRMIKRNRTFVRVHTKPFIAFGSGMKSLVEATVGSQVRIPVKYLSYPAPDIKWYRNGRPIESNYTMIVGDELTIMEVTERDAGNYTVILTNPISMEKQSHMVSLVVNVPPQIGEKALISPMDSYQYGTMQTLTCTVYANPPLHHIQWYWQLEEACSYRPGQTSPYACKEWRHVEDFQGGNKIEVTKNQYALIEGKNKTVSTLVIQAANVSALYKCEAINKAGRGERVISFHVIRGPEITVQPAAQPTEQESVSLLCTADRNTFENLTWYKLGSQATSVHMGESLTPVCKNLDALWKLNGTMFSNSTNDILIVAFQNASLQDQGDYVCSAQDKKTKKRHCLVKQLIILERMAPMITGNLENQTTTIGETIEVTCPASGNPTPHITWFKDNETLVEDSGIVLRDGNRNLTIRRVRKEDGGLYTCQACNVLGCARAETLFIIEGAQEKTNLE

[3] = molecular target: T1, human vascular endothelial growth …; assay: radioactive equilibrium binding assay
Description: (§2) To prepare ³⁵S-labeled binding proteins for analysis, mRNA was prepared as described above for RNA-protein fusion production but the linker ligation step was omitted. The mRNA was expressed using rabbit reticulocyte lysate translation kit (Ambion) in the presence of ³⁵S-labeled Met at 30° C. for 1 hour. Expressed protein was purified on M2-agarose Flag beads (Sigma) as described above. This procedure produced the encoded protein without the nucleic acid tail. In a direct binding assay, VEGF-R2-Fc fusions in concentrations ranging from 0 to 200 nM were added to a constant concentration of the purified protein (0.2 or 0.5 nM) and incubated at 30° C. for 1 hour in buffer B. The receptor-binder complexes were captured using Protein A magnetic beads for another 10 minutes at room temperature using a Kingfisher™ The beads were washed with six reaction volumes of buffer B. The protein was eluted from the beads with 100 μL of 0.1 M KOH. […] of the reaction mixture and elution were dried onto a LumaPlate-96 (Packard) and the amount of ³⁵S on the plate was measured using a TopCount NXT instrument (Packard). The amount of fibronectin-based scaffold protein bound to the target was estimated as a percent of radioactivity eluted from Protein A magnetic beads compare to radioactivity in the reaction mixture. Nonspecific binding of fibronectin-based scaffold proteins to the beads was determined by measuring binding in the absence of KDR-Fc and represented less than 1-2% of the input. Specific binding was obtained through subtraction of nonspecific binding from total binding. Data was analyzed using the GraphPad Prizm software (GraphPad Software, Inc, San Diego, Calif.), fitted using a one site, non-linear binding equation.

[4] = molecular target: T2, mouse vascular endothelial growth …; assay: radioactive equilibrium binding assay
Description: as §2

[5] = molecular target: T3, human vascular endothelial growth factor receptor-2 Fc chimera (KDR-Fc) (human, UniProt P35968 20-764); assay: radioactive equilibrium binding assay, KDR-Fc
T3 construct: range 1-764; also called human VEGFR-2; not shown: human IgG1 Fc
Description: as §2
T3 sequence (P35968 20-764 limits assumed, change not shown, form in doubt): as the sequence (P35968 20-764 limits assumed, change not shown, form in doubt) above

[6] = molecular target: T4, mouse vascular endothelial growth factor receptor-2 Fc chimera (Flk-1-Fc) (mouse, UniProt P35918 20-762); assay: radioactive equilibrium binding assay, Flk-1-Fc
T4 construct: Bought from R&D Systems; also called mouse VEGFR-2; not shown: Fc part of the purchased chimera, not specified
Description: as §2
T4 sequence (P35918 20-762, change not shown): as the sequence (P35918 20-762, change not shown) above

[7] = molecular target: T3, human vascular endothelial growth …; assay: radioactive equilibrium binding assay, 1 nM KDR-Fc, % of input bound
How it was run: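 Read-out: eluted ³⁵S as % of input radioactivity, minus bead-only binding without KDR-Fc (under 1-2% of input); one-site non-linear fit. Tracer binder 0.2 or 0.5 nM, receptor-Fc 0–200 nM, 1 h at 30° C in buffer B.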

[8] = molecular target: T4, mouse vascular endothelial growth …; assay: radioactive equilibrium binding assay, 1 nM Flk-1-Fc, % of input bound
How it was run: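 Percent of input bound is specific binding: total ³⁵S eluted from Protein A beads minus nonspecific bead binding without receptor. The binder (0.2 or 0.5 nM) was incubated with titrated VEGF-R2-Fc in buffer B, 30° C, 1 h.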

Row | Binder | Kd [1] [nM] | koff [1] [s⁻¹] | kon [1] [M⁻¹ s⁻¹] | Kd [2] [nM] | koff [2] [s⁻¹] | kon [2] [M⁻¹ s⁻¹] | Kd [3] [nM] | Kd [4] [nM] | Kd [5] [nM] | Kd [6] [nM] | Binding to 1 nM KDR, % [7] [%] | Binding to 1 nM Flk-1, % [8] [%]
1 | E26 (designed binder, 10Fn3 clone, Del 1-8) EVVAATPTSLLISWRHPHFPTRYYRITYGETGGNSPVQEFTVPLQPPTATISGLKPGVDYTITGYAVTVERNGRELMTPISINYRT |  |  |  |  |  |  |  |  | 1.66 | 2.05 | 27 | 20
2 | E6 (designed binder, 10Fn3 clone, Del 1-8) EVVAATPTSLLISWRHPHFPTRYYRITYGETGGNSPVQEFTVPLQPPTATISGLKPGVDYTITGYAVTDGWNGRLLSIPISINYRT |  |  |  |  |  |  |  |  | 0.35 | 7.1 | 36 | 7
3 | E18 (designed binder, 10Fn3 clone, Del 1-8) EVVAATPTSLLISWRHPHFPTRYYRITYGETGGNSPVQEFTVPLQPPTATISGLKPGVDYTITGYAVTVERNGRELNTPISINYRT |  |  |  |  |  |  |  |  | 1.2 | 0.53 | 17 | 29
4 | E19 (designed binder, 10Fn3 clone, Del 1-8) EVVAATPTSLLISWRHPHFPTRYYRITYGETGGNSPVQEFTVPLQPPTATISGLKPGVDYTITGYAVTVERNGRHLMTPISINYRT |  |  |  |  |  |  |  |  | 1.3 | 0.66 | 38 | 40
5 | E3 (designed binder, 10Fn3 clone, Del 1-8) EVVAATPTSLLISWRHPHFPTRYYRITYGETGGNSPVQEFTVPLQPPTATISGLKPGVDYTITGYAVTDGRNDRKLMVPISINYRT |  |  |  |  |  |  |  |  | 0.96 | 5.4 | 37 | 14
6 | E9 (designed binder, 10Fn3 clone, Del 1-8) EVVAATPTSLLISWRHPHFPTRYYRITYGETGGNSPVQEFTVPLQPPTATISGLKPGVDYTITGYAVTEERNGRTLRTPISINYRT |  |  |  |  |  |  |  |  | 2.37 | 1.4 | 24 | 34
7 | E5 (designed binder, Del 1-8 10Fn3 clone; Flag-tagged in vitro translated protein in the radioactive assay; tag left out) EVVAATPTSLLISWRHPHFPTRYYRITYGETGGNSPVQEFTVPLQPPTATISGLKPGVDYTITGYAVTDGQNGRLLNVPISINYRT |  |  |  |  |  |  | < 0.4 | 3.2 |  |  |  | 
8 | E5 (designed binder, 10Fn3 clone, Del 1-8) EVVAATPTSLLISWRHPHFPTRYYRITYGETGGNSPVQEFTVPLQPPTATISGLKPGVDYTITGYAVTDGQNGRLLNVPISINYRT |  |  |  |  |  |  |  |  | 0.4 | 3.2 | 26 | 10

Other lines, results leading:

Row | Kd [1] [nM] | koff [1] [s⁻¹] | kon [1] [M⁻¹ s⁻¹] | Kd [2] [nM] | koff [2] [s⁻¹] | kon [2] [M⁻¹ s⁻¹] | Kd [3] [nM] | Kd [4] [nM] | Kd [5] [nM] | Kd [6] [nM] | Binding to 1 nM KDR, % [7] [%] | Binding to 1 nM Flk-1, % [8] [%] | Binder
9 | 0.08 | 6.7e-05 | 890000 | 2.02 | 0.00136 | 670000 | < 0.4 | 7.1 |  |  |  |  | E6 (designed binder, Del 1-8 10Fn3 clone; Flag-tagged in vitro translated protein in the radioactive assay, His6-tagged E. coli protein in BIAcore; tags left out) EVVAATPTSLLISWRHPHFPTRYYRITYGETGGNSPVQEFTVPLQPPTATISGLKPGVDYTITGYAVTDGWNGRLLSIPISINYRT
10 |  |  |  |  |  |  |  |  | 1.58 | 1.3 | 41 | 28 | E25 (designed binder, 10Fn3 clone, Del 1-8) EVVAATPTSLLISWRHPHFPTRYYRITYGETGGNSPVQEFTVPLQPPTATISGLKPGVDYTITGYAVTLERNGRELMTPISINYRT
11 |  |  |  |  |  |  |  |  | 1.63 | 2.1 | 19 | 21 | E28 (designed binder, 10Fn3 clone, Del 1-8) EVVAATPTSLLISWRHPHFPTRYYRITYGETGGNSPVQEFTVPLQPPTATISGLKPGVDYTITGYAVTLERNGRELMVPISINYRT
12 | 0.21 | 5.2e-05 | 250000 | 0.76 | 0.000378 | 500000 | < 1.6 | < 1.3 |  |  |  |  | E25 (designed binder, Del 1-8 10Fn3 clone; Flag-tagged in vitro translated protein in the radioactive assay, His6-tagged E. coli protein in BIAcore; tags left out) EVVAATPTSLLISWRHPHFPTRYYRITYGETGGNSPVQEFTVPLQPPTATISGLKPGVDYTITGYAVTLERNGRELMTPISINYRT
